B1: PW5-570 (antibody, V domains shown)
VH: QMQLVQSGPEVRKPGTSVKVSCRASVFSFDTSAVQWVRQARGQPLEWIGWIVFGSSNTDYAQKFRDRVTITGDMSTGTAYMELSSLRSEDTAVYYCAAPHCNRTNCHDGFDIWGQGTVVTVSS
VL: EIVLTQSPGTLSLSPGERATLSCRASQSVRSGYLGWYQQKPGQAPRLLIYGAYNRATGIPDRFRGSGSGTDFTLTISRLEPEDFVVYYCQQYDRSPWTFGQGTKVEIK
notes: also called PW5-570 IgG; PW5-570 immunoglobulin G
B2: PW5-5 (antibody, V domains shown)
VH: QVQLVQSGAEVKKPGASVKVSCKTSGYTFTDHYMYWVRQAPGQGLEWMGVINPDAGSVTYAQKFQGRVTMTSDTSTSTVYMELSSLRSEDTAVYYCARDLFFIPAANSFDYWGQGTLVTVSS
VL: EIVLTQSPATLSLSPGERATLSCRASQSVSSYLAWYQQKPGQAPRLLIYDATNRATGIPARFSGSGSGTDFTLTISSLEPEDFAVYYCQHRSNWPRMFTFGQGTKLEIK
notes: also called PW5-5 IgG; IgG PW5-5
B3: PW5-535 (antibody, V domains shown)
VH: EVRLVESGGGLVQPGGSLRLSCAASGFTFRNYDIHWVRQTTGKGLEWVSAVGTSGDTYYLDSVKGRFTISREDAKKSVYLQMNSLRAGDTAMYYCVRGDASPDNIYYYMDVWGTGTRVIVSS
VL: DIQVTQSPSPLSASVGDRVTITCRASQTIGKYLNWYHQIPGKAPKLLISAASTLHSGVPSRFSGRGSGTDFTLTISSLQPEDFGTYYCQQSYSSPPWTFGQGTKVEIK

The assay has as its target SARS-CoV-2 S trimer (stabilized soluble S2P) (SARS-CoV-2, ancestral (WT, Wuhan-Hu-1 …, UniProt P0DTC2, stabilised)). Briefly: ELISA. To be noted: both partners purified. Background: An ELISA detects its analyte on a solid surface through an enzyme-linked reagent.
Turning to B1, the binding result was “binds”.
The same measure for B2: “binds”; for B3: “binds”.
